The DeepSol protein solubility set

experiment: soluble on expression in E. coli; label from the status in PepcDB or PDB records

Sequence	soluble on expression in E. coli
MSLGITRVVLADDHAVVRAGLRTALAALPDCEVVSEAATGPQLLAVLAQHHPDLLVVDVAMPDFDPIATIRQIHADYPAMKILVVSAYDDQSYVVGLLAAGVNGYHLKDQPLSDLQLAVQRIMAGGNWISSPLLSRLIQAAPQIAHSSPITLTKRQRDLLRLIAQGYDNRRMAQEMDLSIKTIENHLTALYRTIRVSSRLEAYQFALRHPELLAESGHEAALSREPSTSPAPLMVMIIDDNERYRAQLKRMIGKACAESQIYEAEDCHEATRLLRQITPDLVFVDVILQDGDGIQCLRRLKSVSPHTRVILISAYPDREFRRLGLEAGALAFLDKKDLDAATVRQVVEDTLRREGHHHHHH	soluble
FNQTYQFTGLLNPDGTVIEANDAALDFGGLDRDEIVGKHFADIPWWSHSDTERDNVRDALERAASGEFVRYETEVRGVDGLGTIDFSVKPVTDQDENVTLLVVEGRDIT	not soluble
MGSDKIHHHHHHMKTLQYSFAQIEAFATIAETGSLSQAAIRLAKDRTTLRDLLDYLEDALGYRLFSREGRSLTLTAEGEQLFRQAHLLLRQAQAFESFAQTLPQTAGQALRLVYDPFVPREFLCALADNLARRQIRLSCWSASRREAEQALSDGVAEMAICQANNRTLGSEMEWRALGTVDLRFYAADSLFHDAPRPLTLLNLSLTPQLVMHRRSDDQIARRLQISGHTLYMNEITLLRHALEQGRGWGFLPDHLRPGEWQGVSEIATEVGSQGLNVTMVMLWLPGMNKHRMLSDIVHEAPELWLRR	not soluble
MGSDKIHHHHHHMFDRYEAGETAVLVHIDFSDEERREDLVELQLLVESAGARSVGVITGSRRSPDRKFFIGSGKAEELAALVAATEANVVIFNHALSPAQERNLEQVCQCRVLDRTSLILDIFAQRARTHEGKLQVELAQLRHMSTRLVRGWTHLERQKGGIGLRGPGETQLETDRRLLRGRIKNINKRLERVDKQREQSRRARKRSDMPTVSLVGYTNAGKSTLFNALTSSDVYAADQLFATLDPTLRKLDLPDGAVILADTVGFIRHLPHDLVAAFKATLQETRQAELLLHIVDCADENMADNFEQVQSVLKEIDADEVMQLIVCNKIDLLEDVTPRIEYDDRGKPVRVWVSAHKRLGFDLLLKAITELIGEVIHEFTLRIPATAGHYLGQFYRLDAIQQKEYDDLGNCILSVRLSDADWRRLAKQSQGELETFIFDPSIEKAVC	not soluble
SSQQIYGVKYGNVTFHVPSNQPLKEVLWKKQKDKVAELENSEFRAFSSFKNRVYLDTKSGSLTIYNLTSSDEDEYEMESPNITDSMKFFLYVGES	soluble
MGSDKIHHHHHHLSTSQPAEPGDEIARLGALAADFRRRLELDPGAIYPAHAECLWRLGNLQIAQGDVEAGLLSISDSVGLYRAIAQAQPDSYAVQLASLLNSQSNMLAEASHLEEARAIASDAVEHARSAMDDYGDQARFVLVSALINLAGLKMRSGDTAGTVDELAQAVEVFRDGGTAGQPFLGSMVEALHRAAMAFTEVGLWNEAIDTRRLLIGLFGQAPPSAVVQLLMLTLQQASVGLAGTGDTAKALVHANEAVDLARMLFAADGQANRLALAQAVGNLAGRHHDAGSLKEALDLSLEAVDLFQDAVSMDPIHAVPSLIVTLDCMASILTALGLPDQAATVREQRSQLQETLEIIAPRAN	not soluble
MSLQQALINFYYQFHTKQHYFLCHDILEDAWKAENNYSKQDAVVSLILFATACYHYRRNNLKGAYKSFNKSKEIIQNAKDRDALYLNLNDYQLLIEQQIAKLNAAKPFSSVILPITPVFERIIKANYPDYDYNQETATDPFIVDHHMRRDRSEVIAAKEEAIQLRKHRRNEGHHHHHH	soluble
MKSAYIFFNPKSGKDEQALAKEVKSYLIEHDFQDDYVRIITPSSVEEAVALAKKASEDHIDLVIPLGGDGTINKICGGVYAGGAYPTIGLVPAGTVNNFSKALNIPQERNLALENLLNGHVKSVDICKVNDDY	not soluble
MRGSHHHHHHTDPALRAKRAVVVFSGGQDSTTCLVQALQQYDEVHCVTFDYGQRHRAEIDVARELALKLGARAHKVLDVTLLNELAVSSLTRDSIPVPDYEPEADGIPNTFVPGRNILFLTLAAIYAYQVKAEAVITGVCETDFSGYPDCRDEFVKALNHAVSLGMAKDIRFETPLMWIDKAETWALADYYGKLDLVRNETLTCYNGFKGDGCGHCAACNLRANGLNHYLADKPTVMAAMKQKTGLRGLCGR	soluble
